Measurements reported in patent publication US20140274782A1, “AFFINITY REAGENTS AND METHODS FOR DETECTION, PURIFICATION, AND PROTEOMIC ANALYSIS OF METHYLATED PROTEINS” (The Board of Trustees of the Leland Stanford Junior …, priority 2013, published 2014).

Tests used:
3×MBT domain of L3MBTL1 = assay: Triple SILAC pull-down, 3xMBT/3xMBTD355N ratio (cytoplasmic, nuclear and chromatin fractions of 293T cells); format: binding, human; details: SILAC ratio, pull-down 3xMBT vs 3xMBTD355N; for 3xMBT/D355N UNC Heavy: experiment with UNC0638 in heavy SILAC media; for 3xMBT/D355N UNC Light: experiment with UNC0638 in light SILAC media;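 for all read-outs here: proteins quantified with MaxQuant, requiring at least two unique peptides and quantification in both label directions, normalized to the mean of proteins from a digested loading control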
G9a and GLP = target: T1, G9a and GLP (Homo sapiens, UniProt Q96KQ7+Q9H9B1); assay: Triple SILAC pull-down after UNC0638 treatment of 293T cells, DMSO/UNC0638 ratio of protein captured by 3×MBT; format: cell-based; design: endogenous in cells; host or cells: HEK 293T; details: for Relative to UNC0638 UNC Heavy / Relative to UNC0638 UNC Light: SILAC ratio DMSO/UNC0638 of protein pulled down with 3xMBT; for Relative to UNC0638 UNC Heavy: UNC0638 in heavy SILAC media; for Relative to UNC0638 UNC Light: UNC0638 in light SILAC media; for Relative to UNC0638 Average: average of UNC Light and UNC Heavy experiments;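 for all read-outs here: mass spectrometry (Q-Exactive) SILAC quantitation, DMSO/UNC0638 ratio computed after subtracting 3×MBTD355N mutant pull-down background, only proteins with at least twofold 3×MBT over mutant signal considered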
T1 sequence (Q96KQ7 2-1210 limits assumed): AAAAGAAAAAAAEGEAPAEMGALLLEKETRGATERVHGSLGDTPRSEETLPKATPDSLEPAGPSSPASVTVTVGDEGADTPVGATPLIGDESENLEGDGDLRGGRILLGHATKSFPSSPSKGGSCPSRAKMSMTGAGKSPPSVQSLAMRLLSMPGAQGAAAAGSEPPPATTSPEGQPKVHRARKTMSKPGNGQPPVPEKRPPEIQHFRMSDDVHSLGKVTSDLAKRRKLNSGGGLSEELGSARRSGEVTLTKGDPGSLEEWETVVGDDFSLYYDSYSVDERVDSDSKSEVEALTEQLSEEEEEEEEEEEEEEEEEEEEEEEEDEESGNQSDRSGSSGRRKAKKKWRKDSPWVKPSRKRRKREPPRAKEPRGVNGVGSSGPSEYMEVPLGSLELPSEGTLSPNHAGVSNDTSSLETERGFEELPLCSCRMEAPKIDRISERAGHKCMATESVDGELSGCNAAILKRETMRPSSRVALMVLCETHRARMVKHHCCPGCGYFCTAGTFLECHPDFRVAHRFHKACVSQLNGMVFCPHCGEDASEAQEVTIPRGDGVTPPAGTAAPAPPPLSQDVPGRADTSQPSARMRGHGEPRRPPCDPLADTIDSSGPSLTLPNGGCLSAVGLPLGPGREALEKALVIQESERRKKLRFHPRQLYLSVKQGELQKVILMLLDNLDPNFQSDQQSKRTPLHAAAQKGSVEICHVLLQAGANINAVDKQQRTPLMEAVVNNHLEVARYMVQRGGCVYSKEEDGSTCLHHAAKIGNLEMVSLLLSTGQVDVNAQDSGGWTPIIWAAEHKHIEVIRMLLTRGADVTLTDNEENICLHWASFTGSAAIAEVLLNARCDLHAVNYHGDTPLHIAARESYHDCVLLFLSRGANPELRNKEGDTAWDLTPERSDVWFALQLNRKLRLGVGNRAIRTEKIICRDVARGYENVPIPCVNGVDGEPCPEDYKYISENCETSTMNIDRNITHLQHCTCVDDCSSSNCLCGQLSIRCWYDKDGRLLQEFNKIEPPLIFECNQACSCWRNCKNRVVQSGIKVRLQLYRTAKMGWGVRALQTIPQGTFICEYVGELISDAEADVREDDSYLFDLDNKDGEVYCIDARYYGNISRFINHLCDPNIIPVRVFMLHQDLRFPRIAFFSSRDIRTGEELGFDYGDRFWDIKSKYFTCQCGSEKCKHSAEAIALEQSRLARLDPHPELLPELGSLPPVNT
T1 sequence (Q9H9B1 2-1298 limits assumed): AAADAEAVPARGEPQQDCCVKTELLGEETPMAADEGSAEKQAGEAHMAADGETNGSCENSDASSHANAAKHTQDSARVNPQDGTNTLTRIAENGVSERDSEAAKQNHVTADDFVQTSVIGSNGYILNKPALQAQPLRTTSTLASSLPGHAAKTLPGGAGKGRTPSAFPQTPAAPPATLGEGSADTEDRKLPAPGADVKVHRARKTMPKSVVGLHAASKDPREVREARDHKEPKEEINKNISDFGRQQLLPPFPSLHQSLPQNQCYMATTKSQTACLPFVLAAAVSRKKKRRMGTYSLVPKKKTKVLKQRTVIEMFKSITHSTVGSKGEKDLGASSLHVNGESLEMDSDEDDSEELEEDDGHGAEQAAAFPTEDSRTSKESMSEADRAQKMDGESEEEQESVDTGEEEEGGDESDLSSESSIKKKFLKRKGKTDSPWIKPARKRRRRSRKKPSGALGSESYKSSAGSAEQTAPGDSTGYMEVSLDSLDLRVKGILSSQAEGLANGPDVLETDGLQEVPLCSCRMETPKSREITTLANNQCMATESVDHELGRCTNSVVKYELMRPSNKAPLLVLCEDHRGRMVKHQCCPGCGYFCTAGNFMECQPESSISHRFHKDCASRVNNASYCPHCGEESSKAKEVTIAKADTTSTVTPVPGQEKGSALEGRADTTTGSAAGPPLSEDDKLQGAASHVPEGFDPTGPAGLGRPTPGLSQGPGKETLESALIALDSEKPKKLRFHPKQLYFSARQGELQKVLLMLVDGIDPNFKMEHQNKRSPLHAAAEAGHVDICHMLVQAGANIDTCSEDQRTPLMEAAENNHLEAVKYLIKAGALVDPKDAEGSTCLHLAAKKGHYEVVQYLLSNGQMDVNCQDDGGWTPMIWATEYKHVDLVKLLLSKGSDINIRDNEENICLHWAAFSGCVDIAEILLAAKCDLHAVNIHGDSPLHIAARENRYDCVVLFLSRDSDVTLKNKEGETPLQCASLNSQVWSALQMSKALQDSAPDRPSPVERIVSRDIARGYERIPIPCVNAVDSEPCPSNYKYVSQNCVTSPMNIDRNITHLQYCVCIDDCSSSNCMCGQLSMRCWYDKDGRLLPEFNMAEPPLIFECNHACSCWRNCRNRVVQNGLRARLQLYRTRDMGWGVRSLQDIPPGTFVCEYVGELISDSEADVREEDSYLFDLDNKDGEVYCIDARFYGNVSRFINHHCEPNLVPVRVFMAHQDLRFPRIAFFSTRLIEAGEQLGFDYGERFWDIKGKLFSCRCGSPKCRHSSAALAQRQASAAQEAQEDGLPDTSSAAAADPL
Procedure: For UNC0638 treatments cells were treated for 24 hours with UNC0638 at 2.5 μM or DMSO vehicle control. One experiment treated cells in light media with UNC0638, the other treated cells in heavy media. Both experiments included cells in medium media treated with DMSO for negative control pull-down with 3×MBTD355N.
UNC0638 treatment experiments used a Q-Exactive mass spectrometer (ThermoFisher Scientific). A 25 cm HPLC column with 3 μm Reliasil (Orochem) was used to separate peptides over a 4 hour gradient from 0 to 75% acetonitrile. Ions were generated using a custom nanospray source flowing at 250 nL/minute. Mass spectrometry settings were 70,000 MS1 resolution, data dependent selection of up to 20 precursor ions per cycle, dynamic exclusion of 30 seconds and isolation window of 2 m/z.
For UNC0638 experiments the treated vs. untreated ratio was determined by subtracting the value from 3×MBTD355N prior to dividing values from the light and heavy channels. Only proteins showing a two-fold signal to background ratio (3×MBT/3×MBTD355N) were evaluated as potential G9a/GLP substrates.

| Molecule | 3xMBT/D355N UNC Heavy (3×MBT domain of L3MBTL1) | 3xMBT/D355N UNC Light (3×MBT domain of L3MBTL1) | Relative to UNC0638 UNC Heavy (G9a and GLP) | Relative to UNC0638 UNC Light (G9a and GLP) | Relative to UNC0638 Average (G9a and GLP) |
| --- | --- | --- | --- | --- | --- |
| GIGYF2 (protein, UniProt Q6Y7W6 2-1299, looked up) GRB10-interacting GYF protein …: AAETQTLNFGPEWLRALSSGGSITSPPLSPALPKYKLADYRYGREEMLALFLKDNKIPSDLLDKEFLPILQEEPLPPLALVPFTEEEQRNFSMSVNSAAVLRLTGRGGGGTVVGAPRGRSSSRGRGRGRGECGFYQRSFDEVEGVFGRGGGREMHRSQSWEERGDRRFEKPGRKDVGRPNFEEGGPTSVGRKHEFIRSESENWRIFREEQNGEDEDGGWRLAGSRRDGERWRPHSPDGPRSAGWREHMERRRRFEFDFRDRDDERGYRRVRSGSGSIDDDRDSLPEWCLEDAEEEMGTFDSSGAFLSLKKVQKEPIPEEQEMDFRPVDEGEECSDSEGSHNEEAKEPDKTNKKEGEKTDRVGVEASEETPQTSSSSARPGTPSDHQSQEASQFERKDEPKTEQTEKAEEETRMENSLPAKVPSRGDEMVADVQQPLSQIPSDTASPLLILPPPVPNPSPTLRPVETPVVGAPGMGSVSTEPDDEEGLKHLEQQAEKMVAYLQDSALDDERLASKLQEHRAKGVSIPLMHEAMQKWYYKDPQGEIQGPFNNQEMAEWFQAGYFTMSLLVKRACDESFQPLGDIMKMWGRVPFSPGPAPPPHMGELDQERLTRQQELTALYQMQHLQYQQFLIQQQYAQVLAQQQKAALSSQQQQQLALLLQQFQTLKMRISDQNIIPSVTRSVSVPDTGSIWELQPTASQPTVWEGGSVWDLPLDTTTPGPALEQLQQLEKAKAAKLEQERREAEMRAKREEEERKRQEELRRQQEEILRRQQEEERKRREEEELARRKQEEALRRQREQEIALRRQREEEERQQQEEALRRLEERRREEEERRKQEELLRKQEEEAAKWAREEEEAQRRLEENRLRMEEEAARLRHEEEERKRKELEVQRQKELMRQRQQQQEALRRLQQQQQQQQLAQMKLPSSSTWGQQSNTTACQSQATLSLAEIQKLEEERERQLREEQRRQQRELMKALQQQQQQQQQKLSGWGNVSKPSGTTKSLLEIQQEEARQMQKQQQQQQQHQQPNRARNNTHSNLHTSIGNSVWGSINTGPPNQWASDLVSSIWSNADTKNSNMGFWDDAVKEVGPRNSTNKNKNNASLSKSVGVSNRQNKKVEEEEKLLKLFQGVNKAQDGFTQWCEQMLHALNTANNLDVPTFVSFLKEVESPYEVHDYIRAYLGDTSEAKEFAKQFLERRAKQKANQQRQQQQLPQQQQQQPPQQPPQQPQQQDSVWGMNHSTLHSVFQTNQSNNQQSNFEAVQSGKKKKKQKMVRADPSLLGFSVNASSERLNMGEIETLDDY | 2.62 log base 2 | 3.04 log base 2 | 0.34 log base 2 | 0.05 log base 2 | 0.19 log base 2 |
| TOP1 (protein, UniProt P11387 2-765, looked up) DNA topoisomerase 1: SGDHLHNDSQIEADFRLNDSHKHKDKHKDREHRHKEHKKEKDREKSKHSNSEHKDSEKKHKEKEKTKHKDGSSEKHKDKHKDRDKEKRKEEKVRASGDAKIKKEKENGFSSPPQIKDEPEDDGYFVPPKEDIKPLKRPRDEDDADYKPKKIKTEDTKKEKKRKLEEEEDGKLKKPKNKDKDKKVPEPDNKKKKPKKEEEQKWKWWEEERYPEGIKWKFLEHKGPVFAPPYEPLPENVKFYYDGKVMKLSPKAEEVATFFAKMLDHEYTTKEIFRKNFFKDWRKEMTNEEKNIITNLSKCDFTQMSQYFKAQTEARKQMSKEEKLKIKEENEKLLKEYGFCIMDNHKERIANFKIEPPGLFRGRGNHPKMGMLKRRIMPEDIIINCSKDAKVPSPPPGHKWKEVRHDNKVTWLVSWTENIQGSIKYIMLNPSSRIKGEKDWQKYETARRLKKCVDKIRNQYREDWKSKEMKVRQRAVALYFIDKLALRAGNEKEEGETADTVGCCSLRVEHINLHPELDGQEYVVEFDFLGKDSIRYYNKVPVEKRVFKNLQLFMENKQPEDDLFDRLNTGILNKHLQDLMEGLTAKVFRTYNASITLQQQLKELTAPDENIPAKILSYNRANRAVAILCNHQRAPPKTFEKSMMNLQTKIDAKKEQLADARRDLKSAKADAKVMKDAKTKKVVESKKKAVQRLEEQLMKLEVQATDREENKQIALGTSKLNYLDPRITVAWCKKWGVPIEKIYNKTQREKFAWAIDMADEDYEF | 3.47 log base 2 | 3.87 log base 2 | 0.16 log base 2 | 0.22 log base 2 | 0.19 log base 2 |
